Source: publication PMC10113159

Tests used:
Details in all cases: protein: recombinant; tags: untagged; copies: 1;1;1
[1] = target: T1, RPA heterotrimer (RPA1-RPA2-RPA3), WT (Homo sapiens, UniProt P27694;P15927;P35244 1-616;1-270;1-121); assay: fluorescence microscopy, co-partitioning into RPA droplets; equimolar; co-assembly, indirect evidence of binding; Droplet assay buffer and temperature not in material; protein stored in diluted Sorensen phosphate buffer (43.4 mM Na2HPO4, 6.6 mM KH2PO4) pH 7.6, 150 mM KCl, 25 uM EDTA, 1 mM DTT
[2] = target: T1, RPA heterotrimer (RPA1-RPA2-RPA3), WT; assay: fluorescence microscopy, co-partitioning into RPA droplets; equimolar; not enriched in droplets; Droplet assay buffer and temperature not in material; protein stored in diluted Sorensen phosphate buffer (43.4 mM Na2HPO4, 6.6 mM KH2PO4) pH 7.6, 150 mM KCl, 25 uM EDTA, 1 mM DTT
[3] = target: T1, RPA heterotrimer (RPA1-RPA2-RPA3), WT; assay: fluorescence microscopy, co-partitioning into RPA droplets; equimolar; Droplet assay buffer and temperature not in material; protein stored in diluted Sorensen phosphate buffer (43.4 mM Na2HPO4, 6.6 mM KH2PO4) pH 7.6, 150 mM KCl, 25 uM EDTA, 1 mM DTT

T1 sequence (P27694 whole entry, chain 1 of 3): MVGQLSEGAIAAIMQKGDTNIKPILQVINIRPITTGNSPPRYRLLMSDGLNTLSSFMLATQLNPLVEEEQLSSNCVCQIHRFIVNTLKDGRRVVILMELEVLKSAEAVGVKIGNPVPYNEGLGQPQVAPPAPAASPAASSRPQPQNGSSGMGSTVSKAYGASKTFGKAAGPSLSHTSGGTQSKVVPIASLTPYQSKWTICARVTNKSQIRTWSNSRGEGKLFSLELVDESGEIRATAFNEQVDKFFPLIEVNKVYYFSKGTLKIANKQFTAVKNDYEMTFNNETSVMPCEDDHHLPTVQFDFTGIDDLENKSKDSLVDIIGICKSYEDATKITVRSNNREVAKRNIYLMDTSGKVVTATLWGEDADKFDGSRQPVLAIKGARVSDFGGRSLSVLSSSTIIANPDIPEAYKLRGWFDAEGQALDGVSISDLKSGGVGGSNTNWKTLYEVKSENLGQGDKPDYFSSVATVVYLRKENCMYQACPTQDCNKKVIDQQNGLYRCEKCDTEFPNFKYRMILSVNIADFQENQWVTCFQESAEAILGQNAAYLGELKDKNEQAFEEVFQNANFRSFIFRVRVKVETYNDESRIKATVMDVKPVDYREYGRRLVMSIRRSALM
T1 sequence (P15927 whole entry, chain 2 of 3): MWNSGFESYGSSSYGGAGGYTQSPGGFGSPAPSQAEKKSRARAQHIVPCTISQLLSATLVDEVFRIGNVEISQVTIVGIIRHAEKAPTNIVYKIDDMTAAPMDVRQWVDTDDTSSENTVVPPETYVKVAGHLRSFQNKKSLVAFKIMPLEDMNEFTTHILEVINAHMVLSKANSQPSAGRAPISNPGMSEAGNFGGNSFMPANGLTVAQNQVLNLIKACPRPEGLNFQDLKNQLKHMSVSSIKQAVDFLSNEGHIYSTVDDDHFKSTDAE
T1 sequence (P35244 whole entry, chain 3 of 3): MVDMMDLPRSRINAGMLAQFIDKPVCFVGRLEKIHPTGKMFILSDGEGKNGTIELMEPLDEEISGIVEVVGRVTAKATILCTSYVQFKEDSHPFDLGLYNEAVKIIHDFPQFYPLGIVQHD

Binder | binding result [3] | further results
AATTGTTATCCGCTCAC (ssDNA) [FAM-17nt ssDNA] | – | binding result [1]: binds
AGUCGUCGCUGCCAUAGCUUUCGAAUCCACUGUUCCACAU (ssRNA) [Cy3-40nt ssRNA] | – | binding result [2]: no binding
ATGTGGAACAGTGGATTCGAAAGCTATGGCAGCGACGACT (ssDNA) [Cy3-40nt ssDNA] | binds | –
ATGTGGAACAGTGGATTCGAAAGCTATGGCAGCGACGACT (ssDNA) [FAM-40nt ssDNA] | binds | –
